For data set [1], the target named is T1, Trf2ΔN-FG3 (UmTrf2) (Ustilago maydis, UniProt A0A0D1E1Z3 415-1528). Description: EMSA. (Mobility shift assays separate free from complexed probe on a gel.)
Data set [2] concerns the target T1, Trf2ΔN-FG3 (UmTrf2). Kind of data set: EMSA. The source holds these as a separate data set.

B1: TTAGGG4 duplex (dsDNA)
DNA 1: TTAGGGTTAGGGTTAGGGTTAGGG
DNA 2: CCCTAACCCTAACCCTAACCCTAA
One may read the Kd as the equilibrium constant for the complex coming apart. A high value points to lower affinity. In data set [1], B1 showed a Kd of 20 nM.

B2: TTAGGG2 duplex (dsDNA)
DNA 1: GGTTAGGGTTAG
DNA 2: CTAACCCTAACC
Turning to B2, the binding result in data set [2] is recorded as “no binding”.

These data come from publication doi:10.1101/2020.11.06.371997.
